# Measured values as given in article PMC8523169, “Competitive binding of MatP and topoisomerase IV to the MukB hinge domain” (eLife, 2021).
# Numbering of substitutions follows the chain as printed. Names may count otherwise.
# B1: MukB short hinge (SH; amino acid residues 667–779) (domain or fragment, E. coli, UniProt P22523 667-779, looked up)
# chain: GGSEDQRLNALAERFGGVLLSEIYDDVSLEDAPYFSALYGPSRHAIVVPDLSQVTEHLEGLTDCPEDLYLIEGDPQSFDDSVFSVDELEKAVVVKIADRQWRYSRFPEVPLFG
# notes: MukB, E. coli, residues 667-779: hinge lacking the entire coiled-coil; Monomer/dimer mix at tens of µM by nMS; also called SH-His; SH MukB; source: overexpressed, purified (TALON, HiTrap Q XL, SEC); not shown: His6, C-terminal, kept
# B2: MatP^4E (K71E, Q72E, R75E, and R77E) (domain or fragment, E. coli, UniProt P0A8N0 1-132, looked up)
# chain: MKYQQLENLESGWKWKYLVKKHREGELITRYIEASAAQEAVDVLLSLENEPVLVNGWIDKHMNPELVNRMEETIEAERKRHFNAEHQHTRKKSIDLEFIVWQRLAGLAQRRGKTLSETIVQLIEDAENKEKY
# notes: MatP, E. coli, residues 1-132 (MatPΔ18C) with four substitutions; also called MatP K71E, Q72E, R75E, R77E; source: site-directed mutagenesis, purified using the same protocol as MatP
# B3: His-ParC R705E R729A (enzyme, E. coli, UniProt P0AFI2 1-752, looked up)
# chain: MSDMAERLALHEFTENAYLNYSMYVIMDRALPFIGDGLKPVQRRIVYAMSELGLNASAKFKKSARTVGDVLGKYHPHGDSACYEAMVLMAQPFSYRYPLVDGQGNWGAPDDPKSFAAMRYTESRLSKYSELLLSELGQGTADWVPNFDGTLQEPKMLPARLPNILLNGTTGIAVGMATDIPPHNLREVAQAAIALIDQPKTTLDQLLDIVQGPDYPTEAEIITSRAEIRKIYENGRGSVRMRAVWKKEDGAVVISALPHQVSGARVLEQIAAQMRNKKLPMVDDLRDESDHENPTRLVIVPRSNRVDMDQVMNHLFATTDLEKSYRINLNMIGLDGRPAVKNLLEILSEWLVFRRDTVRRRLNYRLEKVLKRLHILEGLLVAFLNIDEVIEIIRNEDEPKPALMSRFGLTETQAEAILELKLRHLAKLEEMKIRGEQSELEKERDQLQGILASERKMNNLLKKELQADAQAYGDDRRSPLQEREEAKAMSEHDMLPSEPVTIVLSQMGWVRSAKGHDIDAPGLNYKAGDSFKAAVKGKSNQPVVFVDSTGRSYAIDPITLPSARGQGEPLTGKLTLPPGATVDHMLMESDDQKLLMASDAGYGFVCTFNDLVARNRAGKALITLPENAHVMPPVVIEDASDMLLAITQAGRMLMFPVSDLPQLSKGKGNKIINIPSAEAARGEDGLAQLYVLPPQSTLTIHVGKEKIKLRPEELQKVTGERGRRGTLMAGLQRIDRVEIDSPRRASSGDSEE
# notes: ParC, E. coli, full length, with two substitutions; also called ParC^EA; source: site-directed mutagenesis, purified using the same protocol as ParC; not shown: His6, N-terminal, kept
# B4: ParE-His (enzyme, E. coli, UniProt P20083 1-630, looked up)
# chain: MTQTYNADAIEVLTGLEPVRRRPGMYTDTTRPNHLGQEVIDNSVDEALAGHAKRVDVILHADQSLEVIDDGRGMPVDIHPEEGVPAVELILCRLHAGGKFSNKNYQFSGGLHGVGISVVNALSKRVEVNVRRDGQVYNIAFENGEKVQDLQVVGTCGKRNTGTSVHFWPDETFFDSPRFSVSRLTHVLKAKAVLCPGVEITFKDEINNTEQRWCYQDGLNDYLAEAVNGLPTLPEKPFIGNFAGDTEAVDWALLWLPEGGELLTESYVNLIPTMQGGTHVNGLRQGLLDAMREFCEYRNILPRGVKLSAEDIWDRCAYVLSVKMQDPQFAGQTKERLSSRQCAAFVSGVVKDAFILWLNQNVQAAELLAEMAISSAQRRMRAAKKVVRKKLTSGPALPGKLADCTAQDLNRTELFLVEGDSAGGSAKQARDREYQAIMPLKGKILNTWEVSSDEVLASQEVHDISVAIGIDPDSDDLSQLRYGKICILADADSDGLHIATLLCALFVKHFRALVKHGHVYVALPPLYRIDLGKEVYYALTEEEKEGVLEQLKRKKGKPNVQRFKGLGEMNPMQLRETTLDPNTRRLVQLTIDDEDDQRTDAMMDMLLAKKRSEDRRNWLQEKGDMAEIEV
# notes: ParE subunit of topoisomerase IV, E. coli; source: overexpressed, purified (TALON, HiTrap Q XL, SEC)
# Experiments:
# [1] = target: the molecule itself; assay: native MS; proteins buffer exchanged into 200 mM ammonium acetate pH 8.0, alone or mixed in different ratios (two or three components, with or without 50 bp DNA), 10 min on ice
# [2] = target: T1, MatPΔ18C (1–132), C-terminal 6xHis-tag (E. coli, UniProt P0A8N0 1-132); assay: as above; details: both partners purified
# T1 construct: MatP, E. coli, residues 1-132 (deletion of the 18 C-terminal residues); also called MatPΔ18C-His; MatP2; source: overexpressed, purified as previously published (Nolivos et al., 2016) with an added SEC step; not shown: His6, C-terminal, kept
# T1 sequence (looked up): B2 chain with E71K, E72Q, E75R, E77R
# [3] = target: T2, full-length ParC, N-terminal 6xHis-tag (E. coli, UniProt P0AFI2 1-752); assay: SEC; topoIV reconstitution: equimolar ParC and ParE, 30 min on ice, verified in analytical SEC; details: both partners purified
# T2 construct: ParC subunit of topoisomerase IV, E. coli, full length; also called His-ParC; ParC2; source: overexpressed, purified as previously published (Nolivos et al., 2016) with an added SEC step; not shown: His6, N-terminal, kept
# T2 sequence (looked up): B3 chain with E705R, A729R
Binder,stoichiometry N [1],binding result [2],binding result [3]
B1,2,binds,
B2,2,,
B3,2,,
B4,2,,binds
